Measured values taken from the nanobody polyreactivity screen of Harvey et al. (2022).

Experiment: yeast display, Sf9 membrane polyspecificity reagent, FACS + sequencing; frameworks hold sequencing errors
In short: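 Galactose-induced (36–48 hours) yeast carrying a synthetic nanobody display library were exposed to 10% biotinylated, detergent-solubilized Sf9 membrane reagent at 4 °C for 1 hour. FACS followed streptavidin microbead enrichment, using low and high (top ~1%) gates for expression (anti-HA) and reagent binding (streptavidin). Colony PCR, MiSeq 2 × 250 sequencing and CDR-length filtering followed. Labels for polyreactivity reflect the gate of origin.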

Sequence	polyreactivity (PSR sort gate)
QVQLVESGGGLVQAGGSLRLSCAAYGSTFGHYAMGWDRQAPGKERELVAAISSSGGSTYYADSVKGRFTISRDNAKNTVYLQMNSLKPEDTAVYYCAARYYHYSYAFGYWGQGTQVTVSS	high polyreactivity
QVQLVESGGGLVQAGGSLRLSCAAYGSTFRYNPLGWYRQAPGKETELVAANTSGGGTNSADSVKGRFTISRDNAKNTVYLQMNSLKPEDTAVYYCAAPWGLGSELLKRDYWGQGTQVTVSS	low polyreactivity
QVQLVESGGGLVQAGGSLRLSCAAYGSTFYANAMGWYRQAPGKERELVAAISSGGSTYYADSVKGRFTISRYNAKNTVYLQMNSLKPEDTAVYYCAKPFYSYRYGFGYWGQGTQVTVSS	low polyreactivity
QVQLVESGGGLVQAGGSLRLSCAAYGSTVSSNAMGWYRQAPGKERELVAGISSSDVGTYYADSVKGRFTISRDYANNTVYLEMNSLKPDDTAVYYCNADHTGQFPSKLFPLGDNYWGQGTQVTVSS	low polyreactivity
QVQLVESGGGLVQAGGSLRLSCAAYGYTLYHNAMGWYRQAPGKERELVAAITSSGGRTYYADSVKGRFTISRDNAKNTVYLQMNRLKPDDTAVYYCNAVVWVYSISLSYTGTKYEYWGQGTQVTVSS	high polyreactivity
QVQLVESGGGLVQAGGSLRLSCADSGFIFSLYAMGWYRQAPGKERELVAAISKRGGSTNYADSVKGRFTISRDYAKNTVYLQMNSLKPEDTAVYYCAKARPGFLYDHWVQGTQVTVSS	high polyreactivity
QVQLVESGGGLVQAGGSLRLSCADSGFISGGNDMGWNRQAPGKEREFVAAIDNTGSTYYADSVKGRFTISRDNAKNTVYLQMNSLKPEDSAVYYCNAEVSEDYVDNDFWGQGTQVTVSS	low polyreactivity
QVQLVESGGGLVQAGGSLRLSCADSGFTFDYYTMGWYRQAPGKDRELVAAITYSGGITYYADSVKGRFTISRDNAKNTVYLQMNSLKPEDTAVYYCNARYSPRTGRGRHVTYYYWGQGTQVTVSS	high polyreactivity
QVQLVESGGGLVQAGGSLRLSCADSGFTFISNAKGWYRQAPGKERELVAAISSSGGRTYYADSVKGRFTISRDNAKNTVYLQMNSLKPEDTAVYYCNADRSLLYSRKIEYDYWGQGTQVTVSS	low polyreactivity
QVQLVESGGGLVQAGGSLRLSCADSGFTFYLYAMGWYRQAPGKERALVAAITGSGGSKYYADSVKGRFTISRYNAKNTVYLQMNSLKPEDTAVYYCAAVFKDSRYQYGFGYDYWGQGTQVTVSS	high polyreactivity
QVQLVESGGGLVQAGGSLRLSCADSGGTFKLYAMGWYSQAPAKESELVAAISRRGGSTYYADSVKGRFTISRDNAKNTVYLQMNSLKPDDTAVYYCAAPGPTQSTQRGGYWGQGTQVTVSS	high polyreactivity
QVQLVESGGGLVQAGGSLRLSCADSGIIFLEYAMGWYRQAPGKERELVAAISSDDGSSTYYADSVKGRFTISRDNAKNTVYLQMNSLKPEDTAVYYCAAYGGGGYYYDYEYWGQGTQVTVSS	high polyreactivity
QVQLVESGGGLVQAGGSLRLSCADSGIIFRYYAMGWYRQAPGKERELVADISRRGGSTYYADSVKGRFTISRDNAKNTVYLQMNSLKPEDTAVYYCAAKYRVYNYSPWGPYNYWGQVTQVTVSS	high polyreactivity
QVQLVESGGGLVQAGGSLRLSCADSGIIFYYNAMGWYRQAPGKEREFVAAIDDRGDSTYYADSVKGRFTISRDNAKNTVYLQMNSLKPEDTAVYYCAARDGYLYFDAMDYWGQGTLVTVSS	low polyreactivity
QVQLVESGGGLVQAGGSLRLSCADSGITFYIYAMGWYRQAPGKERELVATISWSDGRTYYADSVKGRFTISRDNAKNTVYLQMNRLKPEDTAVYYCAADWWYYQFDYEYWGQGTQVTVSS	low polyreactivity
QVQLVESGGGLVQAGGSLRLSCADSGITLVYDGMGWDIQAPGKERELVAAISWTGGSTFYADSVKGLFTISLDNAKKTVYLQMNSLKPEDTAVYYCAADRGYFYSRIQVDSDYWGQGTQVTVSS	low polyreactivity
QVQLVESGGGLVQAGGSLRLSCADSGLIFYYYAMGWYRHAPGKERELVAAISYNGGTTYYADSVKGRFTISRDNAKNTVYLQMNSLNPEDTAVYYCAAEQLVSGYDYWGQGTQVTVSS	low polyreactivity
QVQLVESGGGLVQAGGSLRLSCADSGNIFGTYAMGWSRQAPGKERELVANISNDDRTNYADSVKGRFTISRDNAKNTVYLQMNSLKPEDTAVYYCAVEYPSIAYRKSSKTFDYWGQGTQVTVSS	low polyreactivity
QVQLVESGGGLVQAGGSLRLSCADSGNIFYKNTMGWYRQAPGKERELVAAISVSGGGTYYADSVKGRFTISRDNAKNTVYLQMNSLKPEDTAVYYCAATWRQHPGSMGYWGLGTQVTVSS	high polyreactivity
QVQLVESGGGLVQAGGSLRLSCADSGRIFGLNAMGWYRQAPGKEREFVAAIRWRGGSTYYADSVKGRFTISRDNAKNTVYLQMNSLKPEDTAVYYCAADRNLGVSRYGYWGQGTQVTVSS	high polyreactivity

Sequence	polyreactivity (PSR sort gate)
QVQLVESGGGLVQAGGSLRLSCADSGRIFNGYGMGWYRQAPGKERELVATISSSGDSTYYADSVKGRFTISRDNAKNTVYLQMNSLKPEDTAVYYCAKRARYKFGYWGQGTQVTVSS	high polyreactivity
QVQLVESGGGLVQAGGSLRLSCADSGRIFVHHDMGRYRQAPGKVRELVATITSGGSTYYADSVKGRFTISRDNAKNTVYLQMNSLKPEDTAVYYCAADSWDYDSRMDYWGQGTQVTVSS	low polyreactivity
QVQLVESGGGLVQAGGSLRLSCADSGRNYIGNAMGWYIHAPGKEPELVAAISSSGGNTYYADSVKGRFTISRDNAKNTVYLQMTSLNPEDNAVYYCAVEVRTLVTYGRSEYYWGQGTKVTVSS	high polyreactivity
QVQLVESGGGLVQAGGSLRLSCADSGRTFCKYVMRWYRQAPGKERELVAVISRPAGSTYYADSVKGRFTISRDNAKNTVYLQMNSLKPEDTAVYYCAKRPKNKPVLGDYDHWGQGTQVTVSS	low polyreactivity
QVQLVESGGGLVQAGGSLRLSCADSGRTFSPYAMGWYRQAPGKDRELVAAITSGGRTNFADSVKGRFTISRDNAKNTVYLQMNSLKPEDTAVYYCAARSGRYRWTRFDYWGQGTQVTVSS	low polyreactivity
QVQLVESGGGLVQAGGSLRLSCADSGRTFSSYAMGWYRQAPGKERELVARISSSGGRTSYADSVKGRFTISRDNAKNTVYLQMNSLKPEDTAVYYCAKTYHWLYDYWGQGTQVTVSS	high polyreactivity
QVQLVESGGGLVQAGGSLRLSCADSGRTFYRYAMVWYRQSPGKERELVAAITTSGGSTYYADSVKGRFTISRDNAKNTVYLQMNSLKPEDTAVYYCAATYYGYHIRDDYWGQGTQVTVSS	low polyreactivity
QVQLVESGGGLVQAGGSLRLSCADSGRTFYYYAMGWYRQAPGKERELVASITYYADSVKGRFTISRDNAKNTVYLQMNSLKPVDTAVYYCAKDLYSNDLYRRYDYWGQGTQVTVSS	low polyreactivity
QVQLVESGGGLVQAGGSLRLSCADSGSIFRSYDMGRYSQAPGKERELVAGISYSGGSTYYADSVKRRFTISRDNAKNTVYLQMNSLKPEDTAVYYCNVDGGTYFFFVGAWGEYDYWGQGTQVTVSS	low polyreactivity
QVQLVESGGGLVQAGGSLRLSCADSGSIFYYNAMGWYRQAPGKERELVAAISVSGGSTYYADSVKGRFTISRDNAKNTVYLQMNSLKPEDTAVYYCAAEWLYYYWLPGRADYLEYDYWGQGTQVTVSS	low polyreactivity
QVQLVESGGGLVQAGGSLRLSCADSGSILGNAMVWYRQAPGKERELVAAITRGVSTYYADSVKGRFTISRDNAKNTVYLQMNSLKPEDTAVYYCYKTYVRGVHGVYLPITSYDYWGQGTQVTVSS	low polyreactivity
QVQLVESGGGLVQAGGSLRLSCADSGSILVAKGMGWYRQAPGKESELVAGITTRGGNTYYADSVKGRFTISRDNAKNTVYLQMNSLKPEDTAVYYCAADHLSYRRRYEYWGQGTQVTVSS	low polyreactivity
QVQLVESGGGLVQAGGSLRLSCADSGSTFEYNDMGWYRQEPGKERELVASSTYYADSVQGRFTISRDNAKNTVYLQMNSLKPEDTAVYFCAREQGVNRNHDYWGQGTLVTVSS	low polyreactivity
QVQLVESGGGLVQAGGSLRLSCADSGSTFFRYAMGWYRQAPGKERELVAAISKSGASTYYADSVKGRFTISRDNAKNTVYLQMNSLKPEDTAVYYCNADVKKSSAREWQYGYDYWGQGTQVTVSS	low polyreactivity
QVQLVESGGGLVQAGGSLRLSCADSGSTFLYYGMGWYRQAPGKERELVAGIDGTGSSTYYADSVKGRFTISRDNAKNTVYLQMNSLKPEDTAVYYCAKRYPRYRSRYYYWGQGTQVTVSS	low polyreactivity
QVQLVESGGGLVQAGGSLRLSCADSGSTFPGYTMGWYRQAPGKERELVAAIDGSAGDTYYADSVKGRVTISRDNAKNTVYLQMNSLKPEDTEVYYCAADGPYDYSPWLMYYWGQGTQVTVSS	low polyreactivity
QVQLVESGGGLVQAGGSLRLSCADSGSTFRFNAMGWYRQAPGKERDLVAAISQSGGSTRYADSVKGRFTISRDNAKNTVYLQMNSLKPEDTAVYYCAARRRWLPGYAWQVAYDSWGQGTQVTVSS	high polyreactivity
QVQLVESGGGLVQAGGSLRLSCADSGSTFTRYAIGWYRQAPGKEMEFVAAISWSGGITYYADSVKGRFTISRDNAKNTVYFQMKSLKPEDTAVYYCAAKRRYTRGGYGVDYWGQGTQVTVSS	high polyreactivity
QVQLVESGGGLVQAGGSLRLSCADSGSTFVLNAMGWYRQAPGKERELVAAISRCGASTYYADSVKGRFTISRDNAKNTVYLQMNSLKPEDTAVYYCNASGYGPGVVIYLVLYDYWGQGTQVTVSS	low polyreactivity
QVQLVESGGGLVQAGGSLRLSCADSGSTFWFYAMGWYRQAPGKERELVAVISNSGSTYYADSVKGRYTISRDNAKNTVSLQMNSLKPEDTAVYYCNKDGGGDSYWYVYWGQGTQVTVSS	low polyreactivity
